Patent publication US20240309360A1, “TRANS-ACTIVATORS AND METHODS AND USE THEREOF” (THE GOVERNING COUNCIL OF THE UNIVERSITY OF TORONTO, priority 2021, published 2024)

What was measured:
Type in all cases: cell-based, human
[1] = system: promoter of CD133 gene in HEK293T cells; assay: CD133 induction experiment; settings: PYL1 fusion, 1 μM abscisic acid, pool of 5 gRNAs
Experimental: Up to 2 additional TADs selected from p65 and HSF1 were combined with SPDYE4-CITED1 TADs in different orders and tested for the ability to activate transcription of the PYL1-ABI EGFP reporter system (FIG. 17, left panel) or the endogenous CD133 gene (FIG. 17, right panel).
(§1) Methods: Cells were seeded on 48-well plates. Next day, after cells were between 70-90% confluent, 250 ng of each construct was transfected in each well using (Thermo Fisher Scientific, 11668019) reagent. Each construct was either directly fused TagRFP either directly fused to each component or being co-expressed from the same plasmid was used as a measure of transfection. In each experiment, the same gate for RFP+ cells were used to control for the effect of each construct's expression levels on activity. EGFP reporter cells were expanded from a clonal line to control for level of ABI-dCas9 and gRNA targeting the TetO7 sites upstream of the promoter. For the CD133 induction experiment, a 293T cell line stably expressing ABI-dCas9 and a pool of 5 gRNAs targeting the promoter were used for all activators. CD133 antibody conjugated to APC (Miltenyi Biotec, 130-113-668) was used. All activator constructs were fused to PYL1 at their C-terminus and were recruited to their targets by treating the cells with 1 μM abscisic acid for either 24 or 48 hours.

[2] = system: EGFP reporter (TetO7) in HEK293T cells; assay: Multi-TAD effectors fused to PYL1 recruited to EGFP reporter; settings: PYL1 fusion, 1 μM abscisic acid, 24 or 48 hours
Experimental: Multiple TADs were fused together with PYL1 and tested for transcriptional activity using the PYL1-ABI EGFP reporter system described above. The following TAD fragments were used: CITED1-8 (SEQ ID NO: 47), CITED2-12 (SEQ ID NO: 49), C3orf62-12 (SEQ ID NO: 45), BRD8-25 (SEQ ID NO: 40), ZXDC-12 (SEQ ID NO: 97), KLF7-1 (SEQ ID NO: 72), ATXN7L3-1 (SEQ ID NO: 35), FAM90A1-20 (SEQ ID NO: 60), SPDYE4-3 (SEQ ID NO: 90), YAF2-7 (SEQ ID NO: 96).
as §1, with “All activator constructs were fused to PYL1 at their C-terminus and were recruited to their targets by treating the cells with 1 μM abscisic acid for either 24 or 48 hours.” left out

[3] = system: 7×TetO-EGFP reporter in HEK293T cells; assay: 117 effector domains with rTetR or dCas9 based recruitment systems; settings: rTetR fusion (1 μg/ml doxycycline 48 hours) or PYL1 with dCas9-ABI1
Experimental: A further 117 different combinations of activation domains or fragments of individual activation domains were assayed by fusing them either to PYL1 (to test with the dCas9-ABI1 system) or to rTetR, a transcription factor that binds DNA in the presence of doxycycline. All constructs were tested with the same TetO reporter construct.
Methods: 200 ng of plasmid expressing super activators fused to rTetR in their C terminus and 50 ng DsRed was transfected into HEK293T cells stably expressing 7×TetO-EGFP reporter. One day after transfection, cells were treated with 1 μg/ml doxycycline for 48 hours. After the treatment, cells were analyzed by flow cytometry for EGFP expression

B1: SPDYE4-CITED1-P65-HSF1: multi-component effector of SPDYE4, CITED1, p65 and HSF1 activation domains (protein)
chain: MDPSPQPQSLGLKRKSEWSDESEEELEEELELERAPEPEDTWVVETLCGLKMKLKRKRASSGGSGGSESLSPSAGAQSPAIIDSDPVDEEVLMSLVVELGLDRANELPELWLGQNEFDFTADFPSSCGGSINSRSSGSPKKKRKVGSQYLPDTDDRHRIEEKRKRTYETFKSIMKKSPFSGPTDPRPPPRRIAVPSRSSASVPKPAPQPYPFTSSLSTINYDEFPTMVFPSGQISQASALAPAPPQVLPQAPAPAPAPAMVSALAQAPAPVPVLAPGPPQAVAPPAPKPTQAGEGTLSEALLQLQFDDEDLGALLGNSTDPAVFTDLASVDNSEFQQLLNQGIPVAPHTTEPMLMEYPEAITRLVTGAQRPPDPAPAPLGAPGLPNGLLSGDEDFSSIADMDFSALLGSGSGSGFSVDTSALLDLFSPSVTVPDMSLPDLDSSLASIQELLSPQEPPRPPEAENSSPDSGKQLVHYTAQPLFLLDPGSVDTGSNDLPVLFELGEGSYFSEGDGFAEDPTISLLTGSEPPKAKDPTVS
Question: Which results are given for B1?
Answer: activation of endogenous CD133 gene [1]: most robust activation; transcriptional activation of EGFP reporter by TAD fusions [2]: most robust activation; activity of effector constructs on TetO reporter [3]: the most active constructs in the system
